Measured values reported in US20250277022A1 (STAIDSON BEIJING BIOPHARMACEUTICALS, published 2025).
Where two headings read alike, the source gives them in different places.

B1: TSLP-0101 (antibody, V domains shown)
VH: QVQLQESGPGLVKPSETLSLTCAVSGYSISSGYGWSWIRQPPGKGLEWIGYISYYGSISYNPSLKSRVTISRDTSKNQFSLKLSSVTAADTAVYYCARTNLLYFDSWGQGTLVTVSS
VL: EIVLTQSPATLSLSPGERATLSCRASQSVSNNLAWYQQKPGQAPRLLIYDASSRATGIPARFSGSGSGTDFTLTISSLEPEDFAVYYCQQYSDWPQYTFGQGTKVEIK
B2: TSLP-0110 (antibody, V domains shown)
VH: QVQLQESGPGLVKPSETLSLTCAVSGYSISSGYGWSWIRQPPGKGLEWIGYISYYGSTSYNPSLKSRVTISRDTSKNQFSLKLSSVTAADTAVYYCARTNLLYFDSWGQGTLVTVSS
VL: EIVMTQSPATLSLSPGERATLSCRASQSVSSYLAWYQQKPGQAPRLLIYDTSSRATGIPARFSGSGSGTDFTLTISSLEPEDFAVYYCQQYSNWPQYSFGQGTKVEIK
B3: TSLP-0102 (antibody, V domains shown)
VH: QVQLQESGPGLVKPSETLSLTCTVSGYSISSGYGWSWIRQPPGKGLEWIGYISYYGSISYNPSLKSRVTISRDTSKNQFSLKLSSVTAADTAVYYCARTNLLYFDSWGQGTLVTVSS
VL: EIVMTQSPATLSLSPGERATLSCRASQSVSNNLAWYQQKPGQAPRLLIYDASSRATGIPARFSGSGSGTDFTLTISSLEPEDFAVYYCQQYSDWPQYTFGQGTKVEIK
B4: TSLP-0112 (antibody, V domains shown)
VH: QVQLQESGPGLVKPSETLSLTCAVSGYSISSGYGWSWIRQPPGKGLEWIGYISYYGSTSYNPSLKSRVTISRDTSKNQFSLKLSSVTAADTAVYYCARTNLLYFDYWGQGTLVTVSS
VL: EIVMTQSPATLSLSPGERATLSCRASQSVSSYLAWYQQKPGQAPRLLIYDASSRATGIPARFSGSGSGTDFTLTISSLEPEDFAVYYCQQYSDWPQYSFGQGTKVEIK
B5: TSLP-0108 (antibody, V domains shown)
VH: QVQLQESGPGLVKPSETLSLTCAVSGYSISSGYGWSWIRQPPGKGLEWIGYISYYGSTSYNPSLKSRVTISRDTSKNQFSLKLSSVTAADTAVYYCARTNLLYFDSWGQGTLVTVSS
VL: EIVMTQSPATLSLSPGERATLSCRASQSVSNNLAWYQQKPGQAPRLLIYDASSRATGIPARFSGSGSGTDFTLTISSLEPEDFAVYYCQQYSDWPEYSFGQGTKVEIK
B6: TSLP-0111 (antibody, V domains shown)
VH: QVQLQESGPGLVKPSETLSLTCAVSGYSISSGYGWSWIRQPPGKGLEWIGYFSYYGSTSYNPSLKSRVTISRDTSKNQFSLKLSSVTAADTAVYYCARTNLLYFDSWGQGTLVTVSS
VL: EIVMTQSPATLSLSPGERATLSCRASQSVSSNLAWYQQKPGQAPRLLIYDASSRATGIPARFSGSGSGTDFTLTISSLEPEDFAVYYCQQYSNWPQYSFGQGTKVEIK
B7: TSLP-0109 (antibody, V domains shown)
VH: QVQLQESGPGLVKPSETLSLTCAVSGYSISSGYGWSWIRQPPGKGLEWIGYISYYGSTSYNPSLKSRVTISRDTSKNQFSLKLSSVTAADTAVYYCARTNLLYFESWGQGTLVTVSS
VL: EIVMTQSPATLSLSPGERATLSCRASQGISSYLAWYQQKPGQAPRLLIYDASNLQSGIPARFSGSGSGTDFTLTISSLEPEDFAVYYCQQYSNWPQYSFGQGTKVEIK
B8: TSLP-0104 (antibody, V domains shown)
VH: QVQLQESGPGLVKPSETLSLTCAVSGYSISSGYGWSWIRQPPGKGLEWIGYISYYGSISYNPSLKSRVTISVDTSKNQFSLKLSSVTAADTAVYYCARTNLLYFDSWGQGTLVTVSS
VL: EIVMTQSPATLSLSPGERATLSCRASQSVSNNLAWYQQKPGQAPRLLIYDASSRATGIPARFSGSGSGTDFTLTISSLEPEDFAVYYCQQYSDWPQYTFGQGTKVEIK
B9: TSLP-0105 (antibody, V domains shown)
VH: QVQLQESGPGLVKPSETLSLTCAVSGYSISSGYGWSWIRQPPGKGLEWIGYISYYGSISYNPSLKSRVTISVDTSKNQFSLKLSSVTAADTAVYYCARTNLLYFDSWGQGTLVTVSS
VL: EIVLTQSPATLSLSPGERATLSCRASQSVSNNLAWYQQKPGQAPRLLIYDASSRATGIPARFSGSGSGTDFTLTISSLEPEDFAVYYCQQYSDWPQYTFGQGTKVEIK
B10: TSLP-0106 (antibody, V domains shown)
VH: QVQLQESGPGLVKPSETLSLTCTVSGYSISSGYGWSWIRQPPGKGLEWIGYISYYGSISYNPSLKSRVTISVDTSKNQFSLKLSSVTAADTAVYYCARTNLLYFDSWGQGTLVTVSS
VL: EIVMTQSPATLSLSPGERATLSCRASQSVSNNLAWYQQKPGQAPRLLIYDASSRATGIPARFSGSGSGTDFTLTISSLEPEDFAVYYCQQYSDWPQYTFGQGTKVEIK
B11: TSLP-0201 (antibody, V domains shown)
VH: QVQLVQSGAEVKKPGSSVKVSCKASGFTFGSYGINWVRQAPGQGLEWMGVIVPLVGVTIYAEKFQGRVTITADTSTSTAYMELSSLRSEDTAVYYCARGQEYFYWYFDLWGQGTLVTVSS
VL: QSALTQPPSASGSPGQSVTISCSGSSSDIGGYNRVSWYQQHPGKAPKLMIYDVSKRPSGVPDRFSGSKSGNTASLTVSGLQAEDEADYYCSSYAGTDTFILFGGGTKLTVL
B12: TSLP-0204 (antibody, V domains shown)
VH: QVQLVQSGAEVKKPGSSVKVSCKASGFTFGSYGINWVRQAPGQGLEWLGVIVPLVGVTIYAEKFQGRVTITADTSTSTAYMELSSLRSEDTAVYYCARGQEYFYWYFDLWGQGTLVTVSS
VL: QSALTQPPSASGSPGQSVTISCTGTSSDIGGYNRVSWYQQHPGKAPKLMIYEVNKRSSGVPDRFSGSKSGNTASLTVSGLQAEDEADYYCTSYAGTDTFVLFGGGTKLTVL
B13: TSLP-0207 (antibody, V domains shown)
VH: QVQLVQSGAEVKKPGSSVKVSCKASGFTFGSYGISWVRQAPGQGLEWLGVIVPLVGVTIYAEKFQGRVTITADTSTSTAYMELSSLRSEDTAVYYCARGQEYFYWYFDLWGQGTLVTVSS
VL: QSALTQPPSASGSPGQSVTISCTGTSSDIGGYNRVSWYQQHPGKAPKLMIYEFNKRPSGVPDRFSGSKSGNTASLTVSGLQAEDEADYYCSSYAGTDIFVLFGGGTKLTVL
B14: TSLP-0203 (antibody, V domains shown)
VH: QVQLVQSGAEVKKPGSSVKVSCKASGFTFGSYGINWVRQAPGQGLEWLGVIVPLVGVTIYAEKFQGRVTITADTSTSTAYMELSSLRSEDTAVYYCARGQEYFYWYFDLWGQGTLVTVSS
VL: QSALTQPPSASGSPGQSVTISCTGTSSDIGGYDRVSWYQQHPGKAPKLMIYGVSKRPSGVPDRFSGSKSGNTASLTVSGLQAEDEADYYCSSYASGHTFGLFGGGTKLTVL

Tests used:
human TSLP [1] = target: T1, human TSLP (human, UniProt Q969D9 29-159); experiment: ELISA, plate coated with human TSLP, test antibodies as human IgG1
T1 construct: used biotinylated in some assays; also called hTSLP; recombinant human TSLP
T1 sequence (Q969D9 29-159 R127A/R130S limits assumed): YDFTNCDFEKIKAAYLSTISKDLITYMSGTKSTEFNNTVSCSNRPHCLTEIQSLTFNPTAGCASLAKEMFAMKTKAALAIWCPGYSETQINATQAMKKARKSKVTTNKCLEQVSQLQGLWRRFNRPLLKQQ
Experimental: (§1) ELISA Screening: Monoclonal scFv antibodies were selected and subjected to ligand binding assays. The first assay was designed to identify scFv antibodies that bound human TSLP and/or cynomolgus TSLP. Briefly, a 96-well plate was coated with human TSLP or cynomolgus TSLP in PBS at 0.1 μg/well and left overnight at 4° C. Before loading the scFv antibodies, the plates were washed with TBST, blocked for 1-2 hours at 37° C. using 5% milk and washed again with TBST. Each scFv sample was first diluted to 40 μg/mL, and 150 μL was added to the first row of wells. The 40 μg/mL scFv samples were then serially diluted at a 1:3 ratio and added to the remaining wells. After incubating for an hour at 37° C., followed by washing with TBST for 6 times, 100 μl of the secondary antibody (HRP labeled mouse anti-flag (1:2500)) was added to each well. After incubation for an hour under 37° C., the plate was washed for 3 times using TBST. TMB was then added at 100 μL/well and incubated for 10-20 minutes at 37° C. 2 M H₂SO₄ was used to stop the reaction. The ELISA results (OD405) were then analyzed and the binding curves were generated by PRISM.

human TSLP [2] = target: T1, human TSLP; experiment: cell-based or functional assay
cynomolgus monkey TSLP [3] = target: T2, cynomolgus monkey TSLP (cynomolgus monkey, UniProt A0A7N9CAT7 29-159); experiment: ELISA, plate coated with cynomolgus monkey TSLP, test antibodies as human IgG1
T2 construct: also called cynomolgus TSLP; recombinant cynomolgus monkey TSLP
T2 sequence (A0A7N9CAT7 entry or part of it): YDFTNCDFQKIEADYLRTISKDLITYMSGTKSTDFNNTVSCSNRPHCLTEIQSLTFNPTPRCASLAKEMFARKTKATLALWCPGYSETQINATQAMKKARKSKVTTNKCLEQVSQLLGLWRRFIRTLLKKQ
Experimental: as §1

human TSLP [4] = target: T1, human TSLP; experiment: ELISA, plate coated with human TSLP, test antibodies as human IgG1; remark: listed apart in the source
Experimental: as §1

human TSLP [5] = target: T1, human TSLP; experiment: cell-based or functional assay; remark: listed apart in the source
human TSLP [6] = target: T1, human TSLP; experiment: cell-based or functional assay; remark: listed apart in the source
TSLP-His = target: T3, TSLP-His (human, UniProt Q969D9 29-159, limits assumed); experiment: HTRF competition: blocking of TSLP-his binding to HEK293-Flag-hTSLPR-IL7Ra cells, IgG1
T3 construct: also called his-tagged TSLP; not shown: His-tag
T3 sequence (Q969D9 29-159 R127A/R130S limits assumed): as the sequence (Q969D9 29-159 R127A/R130S limits assumed) above

human TSLP [7] = target: T1, human TSLP; experiment: cell-based or functional assay; remark: listed apart in the source
cynomolgus monkey TSLP [8] = target: T2, cynomolgus monkey TSLP; experiment: ELISA, plate coated with cynomolgus monkey TSLP, test antibodies as human IgG1; remark: listed apart in the source
Experimental: as §1

human TSLP [9] = target: T1, human TSLP; experiment: ELISA, plate coated with human TSLP, test antibodies as human IgG1; remark: listed apart in the source
Experimental: as §1

human TSLP [10] = target: T1, human TSLP; experiment: as above; remark: listed apart in the source
Experimental: as §1

Binder	EC50 (read off the curve) (human TSLP [1])	IC50, inhibition of human TSLP-induced Stat5 activation (Stat5-luciferase reporter, Ba/F3 cells with hTSLPR and hIL7Ra) (human TSLP [2])	EC50 (read off the curve) (cynomolgus monkey TSLP [3])	EC50 (read off the curve) (human TSLP [4])	IC50, inhibition of TSLP induced proliferation of Ba/F3-TSLPR-IL7Ra cells (CellTiter-Glo) (human TSLP [5])	IC50, inhibition of human TSLP-induced Stat5 activation (Stat5-luciferase reporter, Ba/F3 cells with hTSLPR and hIL7Ra) (human TSLP [6])	further results
B1	~0.03 µg/mL	0.0092 µg/mL	~0.7 µg/mL				
B2				~0.08 µg/mL	0.129 µg/mL	0.0245 µg/mL	
B3	~0.04 µg/mL	0.0114 µg/mL	~0.7 µg/mL				
B4				~0.08 µg/mL	0.214 µg/mL	0.0308 µg/mL	
B5				~0.06 µg/mL	0.0394 µg/mL	0.0108 µg/mL	IC50 (TSLP-His): 0.158 µg/mL
B6				~0.08 µg/mL	0.244 µg/mL	0.0438 µg/mL	
B7				~0.07 µg/mL	0.0304 µg/mL	0.0228 µg/mL	
B8	~0.04 µg/mL	0.0154 µg/mL	~0.7 µg/mL				
B9	~0.05 µg/mL	0.0182 µg/mL	~0.7 µg/mL				
B10	~0.05 µg/mL	0.0169 µg/mL	~0.9 µg/mL				
B11					0.0185 µg/mL		IC50 (TSLP-His): 0.351 µg/mL; IC50, inhibition of human TSLP-induced Stat5 activation (Stat5-luciferase reporter, Ba/F3 cells with hTSLPR and hIL7Ra) (human TSLP [7]): 0.00463 µg/mL; EC50 (read off the curve) (cynomolgus monkey TSLP [8]): ~0.7 µg/mL; EC50 (read off the curve) (human TSLP [9]): ~0.07 µg/mL
B12					0.0422 µg/mL	0.0189 µg/mL	IC50 (TSLP-His): 0.428 µg/mL; EC50 (read off the curve) (cynomolgus monkey TSLP [8]): ~0.2 µg/mL; EC50 (read off the curve) (human TSLP [9]): ~0.1 µg/mL
B13					0.133 µg/mL	0.025 µg/mL	EC50 (read off the curve) (human TSLP [10]): ~0.05 µg/mL
B14					0.0363 µg/mL	0.0215 µg/mL	IC50 (TSLP-His): 0.383 µg/mL; EC50 (read off the curve) (cynomolgus monkey TSLP [8]): ~0.3 µg/mL; EC50 (read off the curve) (human TSLP [9]): ~0.1 µg/mL
